Data on one substance can be found in paper PMC12016715.

For this experiment, the target named is SARS-CoV-2 spike (S)-trimer protein (SARS-CoV-2) (UniProt P0DTC2). Nature of the experiment: SEC. A general note: In gel filtration, larger molecules generally elute earlier.

As a reminder, the stoichiometry N is the number of molecules, sites or subunits per partner or assembly.

On to “SARS-CoV-2 spike (S)-trimer protein (from UniProt P0DTC2 16-1209) (domain or fragment)”, for which the stoichiometry N was 3.
